Assay results as given in article PMC6471494, “Functional Mechanisms Underlying the Antimicrobial Activity of the Oryza sativa Trx-like Protein” (International Journal of Molecular Sciences, 2019).

Target: the molecule itself
Test: negative-stain transmission electron microscopy; SEC fractions a, b and c of OsTDX on glow-discharged carbon-coated copper grids, 1% uranyl acetate, FEI Tecnai 20 at 200 kV

B1: Oryza sativa Tetratricopeptide Domain-containing thioredoxin (OsTDX) protein (natural protein, UniProt Q6ES52 1-317, looked up)
chain: MATAGASSFEDEIMESDIELEGEAVEPDNDPPQKMGDPSVEVSDEKRDQAQLCKNKGVDAFSEGKLDEAIEHLTEAIVLNPTSAIAYATRAVIFVKSKKPNAAIRDADAALKINPDSAKGYKSRGMAKAMLGKWEEAAQDLRMAAKLDYDEEIGAELKKVEPNVLKIEEHRKKYERLRKERDIKKAEMEKQRKHAEEVSAASAALKDGDVIAIHSSSELDTKLKAASSLSRLVVLYFTAAWCGPCRFIGPVCKSLAEKHRNVVFLKVDIDELNSVAYRWNVSSVPSFFFVRNGKEIDKVVGADKNGLERKVAQHGSS
notes: OsTDX, Oryza sativa TPR repeat-containing thioredoxin; full-length cDNA amplified from a rice leaf cDNA library and cloned into pGEX-2T; predicted MW ~35 kDa; also called rice Trx-like protein; recombinant OsTDX; source: E. coli BL21(DE3), purified (glutathione-agarose, GST cleaved by thrombin, FPLC SEC 650 column)
- stoichiometry N: 2
